Laboratory results: PMC11117022 (Advanced Healthcare Materials, 2022)
Like-named read-outs stand apart in the source and are kept apart here.

How the values were obtained:
SEC [1] = biological target: the molecule itself; assay: SEC
SEC [2] = biological target: the molecule itself; assay: SEC; remark: listed apart in the source

B1: mouse SIINFEKL‐STINGΔTM (other, chicken | mouse)
chain: GLEQLESIINFEKLTEWTSSLTPAEVSAVCEEKKLNVAHGLAWSYYIGYLRLILPGLQARIRMFNQLHNNMLSGAGSRRLYILFPLDCGVPDNLSVVDPNIRFRDMLPQQNIDRAGIKNRVYSNSVYEILENGQPAGVCILEYATPLQTLFAMSQDAKAGFSREDRLEQAKLFCRTLEEILEDVPESRNNCRLIVYQEPTDGNSFSLSQEVLRHIRQEEKEEVTMNAPMTSVAPPPSVLSQEPRLLISGMDQPLPLRTDLI
With B1 the “stoichiometry N” value (SEC [1]) was 2 and the “stoichiometry N” value (SEC [2]) was 4.
